Source: the supplement of paper PMC12636428

Test system: Saccharomyces cerevisiae
Experiment: transcriptional activation domain activity (GFP:mCherry ratio, weighted mean of sorted bins, harmonized to initial dataset scale) (arbitrary fluorescence ratio units); higher = stronger transcriptional activation
Conditions: beta-estradiol 1 µM; induction time 4 h
Outline: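 Protein tiles carrying barcodes and fused to an estradiol-inducible synthetic transcription factor were placed at the URA3 locus of yeast diploids with a GFP reporter. Following 4 hours at 30 °C in SC with 1 uM beta-estradiol, cells were sorted into 8 GFP:mCherry bins, barcodes were sequenced, and tiles with fewer than 50 reads were discarded. Activation activity is given as the read-weighted mean of bin median fluorescence, averaged across barcodes and linearly mapped to the initial dataset scale.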

Sequence | transcriptional activation domain activity
FLSCMPFVFLTVVCSTLCMYFAKVFPTNNPVFLPLLLLHTFIHILSVVSFGLL | 33300
GFCMASKTLALVLRHLRRYRWCLVARIRRKATEISTRFCALGGILIIYIRNVS | 73500
MIAVFFYYFLLFFYITCEFPVLCCGSLFFFFFFFFCFCDIYCISFCLLAHYHY | 44300
SMLSYHLWMVMHAETSVESQDFHIYRKVAKRRGETFTNSYDLGKIRNLELFFN | 61200
PSFLWWLPLVLFVMATGIFVILSFLLFLIIHGLYYIVPLWQKCGSIHVCVSVL | 52700
MDNTTDLYNYLVDMGLKFLLFWNMVNCKFCHLCLLMPFDITYIIFIFILLLEF | 70300
WARNARKNKSTEEASAQEQRRGAQVIVIHPGSRFLRIGKASEVSPVTVLNVVA | 55600
FLVCSFHHSIFGFFFWLFFDFFSFLHWRLCVLFPFWFRSKSSFPSFFFIVIIS | 51300
LLISDSQLGSYLLIGFVLENFICLFGLLVHSYLSLTRMDLGSFFFFAQITNRM | 40700
LITIPINYTVYIFVLFPFYVLSGTLCVGYYFHSYSPEFWLLRAWDFFFCFIPM | 74300
GVEKTAEKPSEEPAEEAPEKKAEPTTEEPEPEAAKPKARGGRPKKVIAAPKED | 38300
MCAASSEGASLSPASSLQRGKACLACRRRKMRCDGARPTCGQCVRGNRVDDCE | 21200
RLFAYYRSGWQVSNADVVQLPSWLFTLFLCAVCYLCMTIWYTYLTFQIHCVYW | 66300
MVRRLINLFLCRPCLLTFLCYLWVFNIFSSASDLYFLFLLSLFGFVFVMGWGS | 38900
SKSEVSGTGRKAYAQKGRGKARVHSLRAPQFRGGGRAFPVKPRDFSSEIQIKV | 61100
QTAVDNMNEQDLDGRNVRVNMANERPASSGGYGGGRGGGRGGFGGGRGRGGYG | 29600
LPDKGKSTEIMTSKLVGRHEFLPVPDFEDQIRRLYENLLISLLSDTQLLIVAW | 55800
MHPFSPHCLSLSLLLKFSQLFNISFFLLVMHFLWLDILGFFFILFPNHFPMFG | 43800
LYYTVIRLFHIYPCRDPLAANSTTFNKSLYLVWSFLCMLVYLAHISYLTLLPR | 54100
NAIISNLMLGMLLFCGSLYLLITFLPILSSDCPYSTPMSVPWWRILRALGAVG | 37900
REARRHADEEARRRQARQEARRHADEEARRRQEEELARQEARRHADEEARRRQ | 27000

Sequence | transcriptional activation domain activity
SKGNSINTFLEQVTFQVVPMLIDLCVAIGYFLVAFDAYYALVVAIVTFCYLYV | 44100
FHAWVSHIVQLNLFGLLSQTLMLIMFKLDVGTYFFLNDVILCKVYVFSLFVTL | 65400
SDSGSEVDEKNNKNEKIDSESIKNNESKDDIPSKDENSSNDNREISKTDEEGH | 35100
RLLNALLLPPYLEQIMYFGTLACFDAWLYTFTILPMRFISAVGVLVKWWLYLI | 47500
ISNHQVYADWWYAWCLTYFMGTHKDIFIVLKKSLKWLPIVGWGMQFFNFIFLA | 48400
MILMIFTYLLLTIPVVVGLIVASLLHFNFIHLNVLYACSLTSLQLINPCMVLF | 50000
KKPAAKAKAGPSKANGEAAANGKGEEKEQEKEEAPKEKFKAAKLADPAAPGSK | 31200
DIDMEDVDGDAAPSAKKAKASKKRKKDAESDGEQEKACLSFRTILLHSLIFIQ | 41900
RLEASKKRKARVEVDIVLERDCVVEGGEVRGRMEVRVHGSKRSEGLRVGAGKI | 44400
RAYGLLKRYILVPATFGYRCAQNIGWCTIPPRVQSLTIFAFVILNLILCCISY | 58000
MGFFILFYFLFSLWVCGFGFFSRLSVLYLGGFVLFLINHLSLFLYIIFFFFMF | 38800
ATAARRPRADEGEEGLDEATDAAAAPAAAAENGEAAAAKPKKNRKSKAAKAAA | 16300
EATEPAEKPKRKRGRPPGSKNKKTLAAQGGTGEASAAEPPPKRPRGRPPKRKP | 34600
FFAFTFILMMACLVSGIGWCLLYFTCMYLLLIYYILSLFFYSPLASCNSFFFF | 27200
HSVHAGLIFPLFHRHCFYMLESSLRTKSDRLVFNSLSSHAGVIAWLRTQGVLQ | 65500
SWFIHFYILSLSCTVFWAVQFVIDGTVLEVIIKNQLARCTSSMTLSQVLLAWF | 50300
IHILHGTLQTIIAHSRAPHFLHVPCMRLPLLLLLIPPLYFEYCLLLLSPFFFA | 51200
MAAPPFLWTLFFFLFSILLLLSHTYFFLLLLACFFRFWFFYCSFYFSFDFLSS | 37900
GAQKPFDLTHWNITEYDCQGFDGYHEMSFFVLASHLYYRSLRSIPSLVRLWWI | 75200
SDKKAGNDKEEKKEEKKADGSEEKGKKVKDAEKEKEDKKSQQSEKKADDNGDK | 25000
